From patent US20250101135A1 (Hoffmann-La Roche, published 2025)

T1: human CD19 on B cell lymphoma and leukemia cell lines (human, UniProt P15391 20-556)
T1 construct: also called SU-DHL-8; Nalm6
T1 sequence: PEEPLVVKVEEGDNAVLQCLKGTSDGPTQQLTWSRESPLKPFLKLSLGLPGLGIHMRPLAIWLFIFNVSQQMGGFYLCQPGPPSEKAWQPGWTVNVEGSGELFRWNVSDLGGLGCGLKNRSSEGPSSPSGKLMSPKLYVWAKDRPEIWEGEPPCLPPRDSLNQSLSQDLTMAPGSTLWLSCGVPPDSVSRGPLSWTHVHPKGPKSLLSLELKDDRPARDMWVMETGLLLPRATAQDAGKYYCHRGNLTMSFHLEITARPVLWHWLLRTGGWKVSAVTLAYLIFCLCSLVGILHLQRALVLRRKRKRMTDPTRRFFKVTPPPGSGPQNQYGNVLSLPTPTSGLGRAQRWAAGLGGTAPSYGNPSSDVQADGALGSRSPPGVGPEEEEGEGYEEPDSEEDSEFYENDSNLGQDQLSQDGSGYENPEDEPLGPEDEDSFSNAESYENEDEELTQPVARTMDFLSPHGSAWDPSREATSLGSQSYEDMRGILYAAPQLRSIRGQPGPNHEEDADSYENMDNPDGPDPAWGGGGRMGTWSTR

T2: human CEA (CEACAM5) on tumor cells (human, UniProt P06731 35-685)
T2 construct: also called MKN45; MKN-45
T2 sequence: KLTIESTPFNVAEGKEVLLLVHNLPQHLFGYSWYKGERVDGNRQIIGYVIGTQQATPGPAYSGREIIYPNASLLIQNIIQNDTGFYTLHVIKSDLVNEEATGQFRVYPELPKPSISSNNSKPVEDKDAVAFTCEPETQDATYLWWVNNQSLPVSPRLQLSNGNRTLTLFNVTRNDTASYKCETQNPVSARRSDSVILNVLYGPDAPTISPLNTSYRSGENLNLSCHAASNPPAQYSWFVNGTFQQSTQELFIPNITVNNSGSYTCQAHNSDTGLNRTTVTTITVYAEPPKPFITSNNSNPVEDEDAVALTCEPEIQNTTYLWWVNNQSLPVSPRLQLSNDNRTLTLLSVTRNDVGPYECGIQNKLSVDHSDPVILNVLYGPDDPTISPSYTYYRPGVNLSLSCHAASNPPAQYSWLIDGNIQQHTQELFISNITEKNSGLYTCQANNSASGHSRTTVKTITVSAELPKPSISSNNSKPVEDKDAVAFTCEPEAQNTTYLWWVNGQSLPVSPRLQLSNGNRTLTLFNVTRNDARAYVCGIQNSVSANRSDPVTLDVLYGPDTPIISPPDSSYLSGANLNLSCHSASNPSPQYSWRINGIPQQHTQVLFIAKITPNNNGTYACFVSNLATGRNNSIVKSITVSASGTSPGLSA


Key:
[1] = target: T1, human CD19 on B cell lymphoma and …; assay: flow cytometry on SU-DHL-8 cells
Procedure: (§1) Cells were washed once with 200 μL DPBS and pellets were resuspended. […] Cells were washed twice with 200 μL 4° C. FACS buffer and then resuspended in 50 μL/well DPBS containing 1% formaldehyde. The same or the next day cells were resuspended in 100 μL FACS-buffer and acquired using 5-laser LSR-FORTESSA® (BD Bioscience with DIVA software) or 3-laser Miltenyi Quant Analyzer 10 (Mitenyi Biotec) and Flow Jo (FlowJo X 10.0.7).

[2] = target: T3, human 4-1BB (CD137) on cells (human, UniProt Q07011 24-255); assay: flow cytometry, activated human PBMC, CD4+ T cells (panel title MFI CD4), PE anti-human IgG Fc secondary
T3 construct: whole, on cells; also called 4-1BB+CD8+; 4-1BB+CD4+
T3 sequence (Q07011 24-255): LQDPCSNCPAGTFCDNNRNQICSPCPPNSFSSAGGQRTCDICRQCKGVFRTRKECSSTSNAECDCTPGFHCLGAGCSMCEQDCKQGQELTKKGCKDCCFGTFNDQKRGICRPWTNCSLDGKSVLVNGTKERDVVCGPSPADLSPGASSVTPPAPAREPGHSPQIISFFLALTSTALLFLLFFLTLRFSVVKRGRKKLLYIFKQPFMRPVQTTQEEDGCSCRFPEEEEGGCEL
Source text: Gates were set on living CD45+CD3+CD4+ or CD45+CD3+CD8+ T cells and MFI of PE-conjugated AffiniPure anti-human IgG IgG Fcγ-fragment-specific goat F(ab′)2 fragment were blotted against the titrated concentration of targeted split trimeric 4-1BB ligand Fc fusion variants.

[3] = target: T1, human CD19 on B cell lymphoma and …; assay: flow cytometry on OCI-Ly18 cells
Procedure: as §1

[4] = target: T1, human CD19 on B cell lymphoma and …; assay: flow cytometry on Nalm6 cells
Procedure: as §1

[5] = target: T1, human CD19 on B cell lymphoma and …; assay: flow cytometry on Toledo cells
Procedure: as §1

[6] = target: T4, monomeric human CD19 antigen Fc(kih) fusion molecule (human, UniProt P0DOX5 223-449 = IgG part); assay: SPR Biacore T200, captured via anti-human Fab, human CD19-Fc(kih) analyte
T4 construct: also called monomeric CD19-Fc; human CD19-Fc(kih)
Procedure: Anti-human Fab antibody (Biacore, Freiburg/Germany) was directly coupled on a CM5 chip at pH 5.0 using the standard amine coupling kit (Biacore, Freiburg/Germany). The immobilization level was approximately 8000 RU. […] Recombinant human CD19-Fc(kih) was passed at a concentration range from 7.8 to 500 nM (2-fold dilution) with a flow of 30 μL/minutes through the flow cells over 120 seconds. The dissociation was monitored for 120/1800 seconds. Bulk refractive index differences were corrected for by subtracting the response obtained on reference flow cell.
Affinity constants for the interaction were determined by fitting to a 1:1 Langmuir binding.

[7] = target: T2, human CEA (CEACAM5) on tumor cells; assay: flow cytometry on CEA-expressing MKN45 cells
Procedure: Cells were harvested, counted, checked for viability and re-suspended at 2×10⁶ cells/ml in FACS buffer (100 μl PBS 0.1% BSA). […] Binding curves and EC50 values were obtained and calculated using GraphPadPrism5.

| EC50 [1] [nM] | binding result [2] | EC50 [3] [nM] | EC50 [4] [nM] | EC50 [5] [nM] | Kd [6] [nM] | koff [6] [s⁻¹] | kon [6] [M⁻¹ s⁻¹] | EC50 [7] [µg/mL] | Binder |
| --- | --- | --- | --- | --- | --- | --- | --- | --- | --- |
| 0.09 | no binding (tested: about 300 nM) | 0.07 | 0.1 | 0.06 | 12.3 | 0.000261 | 21200 |  | anti-CD19(8B8-018) huIgG1 PGLALA (control G) (antibody, V domains shown) VH: QVQLVQSGAEVKKPGASVKVSCKASGYTFTDYIMHWVRQAPGQGLEWMGYINPYNDGSKYTEKFQGRVTMTSDTSISTAYMELSRLRSDDTAVYYCARGTYYYGSALFDYWGQGTTVTVSS VL: DIVMTQTPLSLSVTPGQPASISCKSSQSLENPNGNTYLNWYLQKPGQSPQLLIYRVSKRFSGVPDRFSGSGSGTDFTLKISRVEAEDVGVYYCLQLTHVPYTFGQGTKLEIKR |
|  |  |  |  |  |  |  |  | 1.5 | Humanized variant 1 of T84.66 IgG (T84.66-LCHA) (antibody, V domains shown, IgG) VH: QVQLVQSGAEVKKPGSSVKVSCKASGFNIKDTYMHWVRQAPGQGLEWMGRIDPANGNSKYVPKFQGRVTITADTSTSTAYMELSSLRSEDTAVYYCAPFGYYVSDYAMAYWGQGTLVTVSS VL: EIVLTQSPATLSLSPGERATLSCRAGESVDIFGVGFLHWYQQKPGQAPRLLIYRASNRATGIPARFSGSGSGTDFTLTISSLEPEDFAVYYCQQTNEDPYTFGQGTKLEIK |
